This note sets out measurements from patent US20170327600, “RNA-PROTEIN COMPLEX, AND RNA AND PROTEIN DELIVERY SYSTEM USING THE SAME” (KYOTO UNIVERSITY, published 2017).

Data set [1] deals with T1, L7Ae (UniProt O29494 O29494:1-119). Description: EMSA; 150 KCl (unit printed ml), 1.5 mM MgCl2, 20 mM HEPES-KOH pH 7.5; triangle also by HS-AFM. To be noted: tags: expressed from pET-28(+) (Novagen) in E. coli Rosetta; chain copies: 3 per LS-RNA; loop of double-stranded RNA with three K-turn motifs. The method, then: (§1) Subsequently, according to electrophoretic mobility shift assay (EMSA), the interaction of L7Ae with the LS-RNA was analyzed. After completion of electrophoresis using polyacrylamide gel, the polyacrylamide gel was stained with SYBR Green I and II (Lonza), and formation of an RNA-protein complex was then observed. As a result, it was confirmed that a triangular structure was formed by the interaction of the LS-RNA with L7Ae, as expected, in all of the LS-RNAs (FIG. 2).
T1 sequence (O29494 whole entry, one chain of several): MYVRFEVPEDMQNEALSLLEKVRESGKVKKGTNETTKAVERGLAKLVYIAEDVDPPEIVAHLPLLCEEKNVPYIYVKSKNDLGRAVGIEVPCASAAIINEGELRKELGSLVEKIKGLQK
A general note: In EMSA bound probe runs differently from free probe, usually more slowly.

In data set [2] the target is T2, L7Ae-Affibody (L7Ae-AFB) (UniProt O29494 O29494:1-119). In words: EMSA. To be noted: chain copies: 3 per LS-RNA; loop of double-stranded RNA with three K-turn motifs. The method, then:
as §1
(§2) The function to recognize specific cancer cells was imparted to Tri-RNP. Specifically, a protein (L7Ae-AFB), in which the N-terminus of an affibody_{ZHER2:342} peptide (SEQ ID NOS: 25 and 26) was fused with the C-terminus of L7Ae via […] (SEQ ID NOS: 27 and 28), was prepared by transfecting a plasmid into Escherichia coli in accordance with Ohno, H., et al., as described above. This L7Ae-AFB was added to LS-RNA to construct RNP (Tri-AFB, FIG. 9A). When LS-26 was used as RNA (Tri-26-AFB), a triangular structure was found by HS-AFM, and it was also confirmed that a substance assumed as AFB was added to each vertex (FIG. 9B). Moreover, according to EMSA, it was confirmed that L7Ae-AFB binds to a K-turn motif, as with Tri-26 (FIG. 10).

Data set [3] has as its target T2, L7Ae-Affibody (L7Ae-AFB). In words: EMSA; triangle also by HS-AFM. To be noted: chain copies: 3 per LS-RNA; loop of double-stranded RNA with three K-turn motifs. Here is the method:
as §1, §2

The target in data set [4] is T1, L7Ae. Description: EMSA; triangle also by HS-AFM. To be noted: tags: expressed from pET-28(+) (Novagen) in E. coli Rosetta; chain copies: 3 per LS-RNA; loop of double-stranded RNA with three K-turn motifs. Here is the method:
as §1

In data set [5] the target is T1, L7Ae. In words: HS-AFM, triangular structure with L7Ae. To be noted: tags: expressed from pET-28(+) (Novagen) in E. coli Rosetta; chain copies: 3 per LS-RNA; loop with three K-turn motifs and a GFP siRNA duplex at each side. The method, then:
Subsequently, the Tri-RNPs were observed by […]. […] The cantilever was set at a resonance frequency of 400-1000 kHz and at a spring constant of 0.1-0.2 N/m. A probe was deposited on the cantilever by electron beam. The mica surface was coated with 0.1% APTES, and thereafter, a 50 nM sample that had been dissolved in an RNP-binding solvent and an AFM observation solvent (20 mM Tris-HCl (pH7.6) and 10 mM MgCl2) was left at rest on the mica. The image was analyzed using software such as Image J and WSxM.
Specifically, five RNAs were hybridized with S-26, L-26-1 (SEQ ID NO: 29), L-26-2 (SEQ ID NO: 30), L-26-3 (SEQ ID NO: 31), and antisense-GFP (SEQ ID NO: 32) in the same manner as described above, such that L-26 had siRNA for GFP at the three sides thereof, thereby producing LS-26-siGFP. Subsequently, LS-26-siGFP was mixed with L7Ae to produce Tri-26-siGFP having a triangular structure, and the structure of the Tri-26-siGFP was then confirmed by HS-AFM. […] As given above, a triangular structure (Tri-26-siGFP) having a structure containing three double strands having siRNA function could be constructed.

T2 sequence (O29494 whole entry, one chain of several): as above

B1: LS-15 (dsRNA)
RNA 1: GGUGAAGGGCGUGAUGAGCGAGAAGUCCGGCUUCGGCGUGAUGAGCCCUGUGCCGGCCCUGGGCGUGAUGAGCAUUCCACC
RNA 2: GGACUUCUCGCUCUGACCCUUCACCGGUGGAAUGCUCUGACCCAGGGCCGGCACAGGGCUCUGACCGAAGCC
In the case of B1, the binding result with L7Ae [1] and with L7Ae-Affibody (L7Ae-AFB) [2] was “binds” in each case.

B2: LS-26 (dsRNA)
RNA 1: GGCGCAAAGGCCUGUAAUCGGCGUGAUGAGCCAUGCGAGGAGGAAAUGAAGUCCAAUGGCGUGAUGAGCCUCUACGGGAAGAGCAUGCCCAUCCGGGCGUGAUGAGCGUAGCAA
RNA 2: GGCCUUUGCGCCUUGCUACGCUCUGACCCGGAUGGGCAUGCUCUUCCCGUAGAGGCUCUGACCAUUGGACUUCAUUUCCUCCUCGCAUGGCUCUGACCGAUUACA
For B2, the binding result in the data set with L7Ae-Affibody (L7Ae-AFB) [3] and in the data set with L7Ae [4] was “binds” throughout.

B3: LS-26-siGFP (dsRNA)
RNA 1: GGCAUCAAGGUGAACUUCAAGAUCCGCAAAGGCCUGUAAUCGGCGUGAUGAGCCAUGCGAGGA
RNA 2: GGCAUCAAGGUGAACUUCAAGAUCCGGAAAUGAAGUCCAAUGGCGUGAUGAGCCUCUACGGGA
RNA 3: GGCAUCAAGGUGAACUUCAAGAUCCAGAGCAUGCCCAUCCGGGCGUGAUGAGCGUAGCAAGGC
RNA 4: B2 RNA 2
RNA 5: GGAUCUUGAAGUUCACCUUGAUGCCAG
In the case of B3, the binding result with L7Ae [5] is “binds”.

B4: LS-48 (dsRNA)
RNA 1: GGACGAGCUGUACACCAUGGUGACCGCCGCCGGGCGUGAUGAGCUCCAAGGACCCCAACGAGAAGCGCGAUCACAUGAUCUACUUCGGCUUCGGCGUGAUGAGCCCUGUGCUGCUGCCCGAUAACCACUACCUGCCAUCACCCACGGCCCUGGGCGUGAUGAGCAUUCCACCCAGAGCGC
RNA 2: GGUGUACAGCUCGUCCGCGCUCUGGGUGGAAUGCUCUGACCCAGGGCCGUGGGUGAUGGCAGGUAGUGGUUAUCGGGCAGCAGCACAGGGCUCUGACCGAAGCCGAAGUAGAUCAUGUGAUCGCGCUUCUCGUUGGGGUCCUUGGAGCUCUGACCCGGCGGCGGUCACCAU
For B4, the binding result with L7Ae [4] and with L7Ae-Affibody (L7Ae-AFB) [2] was “binds” in each case.
